Paper PMC8113726

Target: Xenopus cyclase-associated protein 1 (XCAP1) (X. laevis (endogenous in oocytes))
Assay: SEC-MALS + AUC; purified native XCAP1-actin complex; SEC-MALS on SRT SEC-300 in PBS pH 7.2, 0.02% NaN3, 20 °C; sedimentation velocity at 40,000 rpm, 20 °C

- stoichiometry N: 4
Substance: Xenopus cyclase-associated protein 1 (XCAP1) (natural protein)
